The nature of the series: soluble on expression in E. coli; label from the status in PepcDB or PDB records.
“SVMYEEDFVLNSRGMKLFTCVWKPVKQEPKALLFLCHGYAMESSITMNSAATRLANAGFAVYGMDYEGHGKSEGLNGYISNFDDLVDDVSNHYSTICEREENKGKMRFLLGESMGGAVVLLLARKKPDFWDGAVLVAPMCKLADEIKPHPVVISILIKLAKFIPTWKIVPGNDIIDIAIKEPHIRNQVRENKYCYKGRPRLNTAYQLLLVSLDLEKNLHQVSIPFIVLYGEDDKVTDKSISKMLYEVASSSDKTFKLYPKMWHALLYGETNENSEIVFGDIINWLEDRATDSNGGLESQLKHKHDGFLKHK”: the “soluble on expression in E. coli” value is “soluble”.
On to “MVLAPFFEKAPSLIIAPDGSVLFECICNANPQPTVKWFLKDKELTGDRYVSKIKKMVGKFTVTLHIKNPTQEDQGVYKVTATNTHGSHSVEQQYIYKCTGKEVFKTLD”, for which the “soluble on expression in E. coli” value is reported as “soluble”.
The value for “MLQYPELPLESPLIDAELPDPRGGRYRLSQFHEPLLAVVFMCNHCPYVKGSIGELVALAERYRGKVAFVGINANDYEKYPEDAPEKMAAFAEEHGIFFPYLLDETQEVAKAYRALRTPEVFLFDERRLLRYHGRVNDNPKDPSKVQSHDLEAAIEALLRGEEPPLKEAPAIGCTIKWRPGNEPEVRIG” was “soluble”; that for “MDLTNGGVSPAATSAPLDWTTFRRVFLIDDAWRPLMEPELANPLTAHLLAEYNRRCQTEEVLPPREDVFSWTRYCTPDEVRVVIIGQNPYHHPGQAHGLAFSVRANVPPPPSLRNVLAAVKNCYPEARMSGHGCLEKWARDGVLLLNTTLTVKRGAAASHSRIGWDRFVGGVIRRLAARRPGLVFMLWGTHAQNAIRPDPRVHCVLKFSNPSPLSKVPFGTCQHFLVANRYLETRSISPIDWSV” was “soluble”; that for “MGHHHHHHSHMGKITFYEDRAFQGRSYETTTDCPNLQPYFSRCNSIRVESGCWMLYERPNYQGQQYLLRRGEYPDYQQWMGLSDSIRSCCLIPQTVSHRLRLYEREDHKGLMMELSEDCPSIQDRFHLSEIRSLHVLEGCWVLYELPNYRGRQYLLRPQEYRRCQDWGAMDAKAGSLRRVVDLY” was “soluble”.
The value for “MKLGFIGLGIMGSPMAINLARAGHQLHVTTIGPVADELLSLGAVNVETARQVTEFADIIFIMVPDTPQVEDVLFGEHGCAKTSLQGKTIVDMSSISPIETKRFAQRVNEMGADYLDAPVSGGEIGAREGTLSIMVGGEQKVFDRVKPLFDILGKNITLVGGNGDGQTCKVANQIIVALNIEAVSEALVFASKAGADPVRVRQALMGGFASSRILEVHGERMINRTFEPGFKIALHQKDLNLALQSAKALALNLPNTATCQELFNTCAANGGSQLDHSAMVQALELMANHKLS” was “soluble”.
With “MPEVSFIICTRNRVAVLEACLKSVQAACRAHAGFAAELVVVDNGSSDRTAERLASIAAMSDIPFTPVSEPRRGLAAARNAGLRRARGRVLVFVDDDCAVHCDYLRDLERHYASGEQGLIRGGRVELGDPRDLPFTIKRSRVCERLTPDIHPGGFVLGCNMTMHRDVAARIGDFDERFGAGGPLRSAEDTDYLVRAVLLGIPVEYVPDMTIFHHHGRRDRKAIEKLHRDYSLGNGGLCLKHIRHAPWLLRHFYWAARGALRELAGGPAFDRDLDLSHRPIVGMNVLGAARYALLLLARRPQAEPARQDQQANAEAPLLEHHHHHH” the entry was “not soluble”.
On to “MGHHHHHHGGHMSLKVLDFPSSKKAKELAVKYGYDEFIVRRWLHFFGDETEDIIRAFEEGIPKYIRINTLKIDEKGLLERLESRGFKLKKTEVPYCFEVVEEPYSIGATPEYLMGYYYVMDKSSCIPPLALEPKPGEVVVDLAASPGGKTTFLSMLMENKGAVIAVEPQKERLQPLIDNINRMGAMNVAVINVDGRRVPAMGIKADRVLLDAPCTGEGIIHKDPSRKTDRGKEDILFCSSLQRELVLAAFDCLKEGGVMVYSTCSLTPEENEFVVDFLLERRKGVVEEIEWGDEALALPGVKNEVSKARRFYPHRHQCSGFFVARIRKVGDSKAKPEEGGS”, for which the “soluble on expression in E. coli” value is on record as “soluble”.
The value for “MSLALAVQNTDTIGVVVTDVTDAFFAILVKAVDKVAEAHQKTILIGIGYHHAEKEREAINTLLRKRCSSLVVHSKALSDDELSHYLNTVQGMVIINRVIKGYEHRCVSLDNQKGTYLATEMLIRYGHQHIAYIGSNHAIFDEVERRNGYLAALKDHNYLIIEQAITLNSPDFEGGEKAMIDLLSYNKNLTAVVAYNDSMAAGAISVLNENNISVPSQFSIIGFDDMPIARYLIPKLTTIRYPIDLMATYAAKLALSLTDEKIITPPVVQFNPTLVRRFSVESREGHHHHHH” was “soluble”; that for “MGSDKIHHHHHHMNRYLIIARVGDNSLHPTWINSEKRNFDLFISYFGNEEKKYSEHADYYEHMKGGKWPIISRLIDKNWEIISKYDAVWFPDDDLLVDTNSICKMFDLFSAFDLSLAQPALSMDSYFSHPCLLQQKKSIIRFTNFVEVMAPIFSLSSLERVKHTFSQSKSGWGLDFLWPHMINGKIGIIDVTPVIHTRPIGGELYKLNPELSPKMDIVKLQEIYPDIILNKKYKKNKFKVFSQILETRTLNEKMAYFKGKVQVALAKKVSKETKKYGA” was “not soluble”; that for “MDILVLRVDVPKEGFARKLGAHETVFAADDGAVGKVQQLVEVLLRHERDFDEADGCRLKNIAVVLQGILRNNAALFEAVDDLRPRQQQCHRAACLSPHFQPLCPNIAPIAEKQPFGGVFFGQHQPLSQGFSIETDGFAVITFAYQPAAFFAETHKPKIFLNTLLRRRHQMQPFIAFLRAQIFPIQPKRLVSADNVQHIFGQVAGKSFDDDIGNRRGINICRIGMPSADMNILMNAGNIGQIRAKRTQGGHIVRPQMHLPTEFAVQNTGEPPRNADVAEIVDDLAKNPTDKRRSIHRNNGNGLKRAKIVEQIHNQQNNRNKQQHSLTFQIKLLFQMMLDGVEKDEFKQKRRFAGKDDAVDQMLEFVFGRIGGENGKRRQRDEADGKPADKQVSGHCKAFKKAKRHYRPKRTPCLTDAPEMPSEALPQENAAPPNL” was “not soluble”.
The value for “MAYQRIRQPKLSDVIEQELERLIVEGTLSPGQQLPPERELAKQFEVSRPSIREAIQRLEAKRLLTRRQGGGTFVSDRIWQSFSDPLLNLLSSHSETQLDLLEARHALEGICAYFAALRGTEEDFARIQHCVTRIAEAQALNNVDEEAERVMAFLIAITEAAHNVVLLHIVRSLSPLLEQNIRQNFKLLHRRPEAVEKVSKHRANIVDAIVSGQPEKAREMSHSHLAYIEETLLDLTREQTRRERSLRRIQQGNEPQ” was “soluble”.
With “MRLIMKPEHSTRGRVIFVGAGPGNPDLLTVRAREVLGSTANAVVDSTVGVGIRAVIAEHLEVPQAKLDAAEAEYERMCAAAKRRKPPRPDAPTAAEITEVSADASVDEVMAVLLPLLDEGDVIRLVQGNPLADSRALDEITAVTQVGADFQIVPGMSLPAAVPAFAGITLGDSYTKTTVSEDTNWDQLATAPLPLILQASKDDLLTIAMELKDRKLPASTPVTVTMNGTTRLQRSFDVTLKTMKSLVKQELDGTLVVTVGVSDRSTFSWWESRALFGWRVLVPRAKDQAGPMSSRIAAYGAIAQEVPTISVEPPRNPAQLERAIKGIVEGRYQWVVFTSVNAVKAVREKIVSFGLDSRAFAGVHIAAVGAKTAAAIREFGITPELIPPRKEHNAAGMVSVFPNYVEGLDPVGRVLLPRADIATDVLVDGLVNLGWEVDDVVAYRTVRAAPPSAEVRDMIKSGDFDAVCFTSASTVRNLVGIAGKPHARTIIACIGPMTAAEAEKQGLRVDVIPEVANVAALVDALAEHVEKLRAAGELPPPRKKRRARRKSKEGAV”, the “soluble on expression in E. coli” value is listed as “not soluble”.
The value for “MLHEIPKSEILKELKRIGAKRVLIQSPEGLRREAEELAGFLEENNIEVFLHGEINYGACDPADREAKLVGCDALIHLGHSYMKLPLEVPTIFVPAFARVSVVEALKENIGEIKKLGRKIIVTTTAQHIHQLKEAKEFLESEGFEVSIGRGDSRISWPGQVLGCNYSVAKVRGEGILFIGSGIFHPLGLAVATRKKVLAIDPYTKAFSWIDPERFIRKRWAQIAKAMDAKKFGVIVSIKKGQLRLAEAKRIVKLLKKHGREARLIVMNDVNYHKLEGFPFEAYVVVACPRVPLDDYGAWRKPVLTPKEVEILLGLREEYEFDEILGGPRESDEPFGISIHSTRLEHHHHHH” was “not soluble”; that for “MLTQEQIMNALKHVEDPELHKSVVELNMVRNIQMNGTEVKLEVVLTIQGCPLKAKIQQDIEESLHAIGASKVEVTFGSMTQEERAALTEKLKRNTRTETGMPSMLRPDSGVRFITVTSGKGGVGKSTVTINLATALARMGKKVGILDADIYGFSIPAMMETNKKPTMIDQTAIPVISHGVKIMSMGFFTEGNNPVMWRGPMLNKWIQNFLANTHWGELDYLLLDLPPGTGDVAIDVAAMIPQAKEIIVTTPHNIASFVASRVGVMAKHTKHEILGIVENMAYYEEQDGSKNYLFGKGGGEMLAEQLQTEVIAKIPFAKREENNGSSVYDEDSLVGEVFTSLAEDIIYRGLEHHHHHH” was “soluble”; that for “MELVATQDGFVGEMARGFTFQALGEVAAGFGKRLQAEGIPRVVVGHDARFLAREMAEHAAGVLGGLGLEVHLLQGPAPLPLFGFALRAKEAAGLYLTGSRRPFAFQGVKLRLGPGRPLPREGGGPRTPPSPGPFAPLEARRDYLDHLRKSAQGLALKRGVVYLDAMGGAGGGILGQVLKRLEAPVELRELHPLPHPLFYGVAPDPRPEHLRTLRLLLREAKPPALGLALDGDADRLGVYLPGGEALPGDQALARLREAAQGREVEALGEGAYRFPWHLEEPDPFLAALLLMGVLL” was “soluble”.
The value for “GMTLPPYHTPLPAETLRALSIPAPWTFGLADRVRFGELDAIGHVNHTAYLRWYESFRLPFLKARHVTDYGPTSPRLVLKQVHCTYLAEMGMGEDYVITGRVSNFRTTSFTMEFACWRLGDAVECTSEGSAVVVLLNRDGSGRYPIPEAGRASFVTEDGVLAAG” was “soluble”; that for “MGHHHHHHSHMQLVRDLLEVTSGLISDDIINMRNDLYQTPLHLAVITKQEDVVEDLLRAGADLSLLDRLGNSVLHLAAKEGHDKVLSILLKHKKAALLLDHPNGDGLNAIHLAMMSNSLPCLLLLVAAGADVNAQEQKSGRTALHLAVEHDNISLAGCLLLEGDAHVDSTTYDGTTPLHIAAGRGSTRLAALLKAAGADPLVENFEPLYDL” was “not soluble”; that for “MGSDKIHHHHHHLIRGLYTAGAGMMLQMARQDVVANNLANVNTSGFKKNTAVAKAFPDMLISRLGECKEDKQGQLKVQSPVVIGRLGTGASISGIYTDFDNNNLKKTDSPCDLAITGAGYFVVQTPEGQRFTRCGEFKINSEGILTTNSGYPVLDSNDSPITIEGEFLIDEQGNINVDGENITRLKIVNFNDLQILERLGDNLLNSPEEPYVMERPEMLQGYIEQSNVNAVKEMVTLISVVRAYESLQKMVQAEDEIMGQAIDKVGSIN” was “not soluble”.
With “MAPSAAVGNYGEVIDYLQRHIRREMERQDVPGLALALVDDQQLVWARGFGYADRQHRINASEHTAFHAGDLSKLLIASATLQLAERGQLSLDAPLQDTLREFYVRSRFHADQSEADRAITFRRLLSHQSGLPGEHLPPLFGERPNSLGQLPAKVSGVWLSNPPGTQVAHSNLGYELVGAAIERNTGKHFEQHMREHLLDPLQMTRSSFARNALPQAQRAHGYSGGGRPGSASDLPVNDLWSSPVDLSRFVRMLFANGRHKERQLLRKHSVEEMFRQQNAGNALDFDCQVGLAWFLSPCGSAPLEGGIRHYEYASATPGFSAHLILLPEQRLAAIVMSNADDSGSLTASLARQAASLMLQVKQGARRPAVQLEHHHHHH” the entry was “not soluble”; with “GPGSMQKENDRMRKKKDEAREEEEISIFHCDDGSVYEGRVTRREIPVELPLGMPTPAPASTLRGQPPPEVMPQIVPIQHGKGIFKDAGGTIYDGNWIEGAMCGEGVLQFPSGATYTGGMRANEFCGTGTYNWPDGSRYEGQWENNRMHGFGVYVDAQGGRWAGKFYRGCGVGLLGEIHL”, “soluble”.

Source of the values: the DeepSol protein solubility set.
